Measured values published in patent US20230250157A1 (published 2023).
Substitutions are numbered along the chain they refer to.

B1: M8a-29 (antibody, V domains shown)
VH: EVQLQQSVAELVRPGASVKLSCTASGFNIKNTYMHWVKQRPEQGLEWIGRIDPSIDHTRYAPKFQGKAVITAFTSSNTAYLQLSSLTSEDTAIYYCAREGGGNYPYYYAIDYWGQGTSVTVSS
VL: DIVMTQAAFSNPVTLGTSASISCRSTKSLLHSNGITYLYWYLQKPGQSPQLLIYQMSNLASGVPDRFSSSGSGTDFTLRISRVEAEDVGVYYCAQNLELPYTFGGGTKLEIK
B2: M8a-25 (antibody, V domains shown)
VH: B1 VH
VL: DIQMTQSSSSFSVSLGDRVTITCKASEDIYIRLAWYQQRPGNAPRLLISNAISLETGVPSRFSGSGFGKDHTLSITSLQTEDVATYYCQQYWSTPWTFGGGTKLEIK
B3: M8a-11 (antibody, V domains shown)
VH: EVQLQQSGPELVKPGASVKIPCKASGYTFTDYNMDWVKQSHEKSLEWIGEIDPNNGDTIYNQKFKGKASLTVDKSSSTAYMELRSLTSEDTAVYYCAKRGYYGSSLWWYFDVWGTGTTVTVSS
VL: B2 VL with F67S, H71Y
B4: M8a-15 (antibody, V domains shown)
VH: QVQLQQSGPELARPGASVKLSCRASGYTVTSFGLSWMKQRTGQGLEWIGEIYPTSKNTYYNDKFRTKATLTADKSSSTAYMELRSLTSEDSAVYFCVLYDYFDYWGQGTTLTVSS
VL: QIVLTQSPAIMSASPGEKVTISCSASSSVSYMYWYQQKTGSSPKPWIYRTSNLASGVPVRFSGSGSGTSYSLTISSMEAEDAATYYCQQYQSYPRTFGGGTKLEIK
B5: M8a-7 (antibody, V domains shown)
VH: QAYLQQSGAEMVRPGASVKMSCKASGYTFNNYNMHWVKQTPSQGLEWIGGFYPGNDDTAYSQKFKGKATLTVDKSSSTAFMHLSSLTSEDSAVYFCARSLGRYYAMDYWGQGTSVTVSS
VL: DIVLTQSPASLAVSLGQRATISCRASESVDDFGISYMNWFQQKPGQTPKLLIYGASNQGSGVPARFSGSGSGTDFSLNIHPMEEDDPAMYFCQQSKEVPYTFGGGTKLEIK
B6: M8a-30 (antibody, V domains shown)
VH: QVHLQQSGPELVKPGASVKISCKASGYGFSSSWMNWVKQRPGKGLEWIGRIYPGDGDTNYNDKFQGKATLTADRSSSTAYMHLTSLTSADSAVYFCARSLLYSFDYWGQGTTLTVSS
VL: DVVVTQTPLSLPVSFGDQVSISCRSSQSLAGSYGHTYLSWYLHKSGQSPQLLIYGISNRFSGVPDRFSGSGSGTDFTLKISTIKPEDLGMYYCLQGTHQPLTFGAGTKLELK

Biological target: SARS-CoV-2 Omicron BA.2 RBD (SARS-CoV-2 Omicron BA.2)
Test: ELISA

Binder	EC50
B1	> 10 µg/mL
B2	> 10 µg/mL
B3	> 10 µg/mL
B4	> 10 µg/mL
B5	> 10 µg/mL
B6	> 10 µg/mL

Biological target: SARS-CoV-2 Omicron BA.1 RBD (SARS-CoV-2 Omicron BA.1)
Test: ELISA

Binder	EC50
B1	> 10 µg/mL
B2	> 10 µg/mL
B3	> 10 µg/mL
B4	> 10 µg/mL
B5	> 10 µg/mL
B6	> 10 µg/mL

Biological target: SARS-CoV-2 Beta RBD (SARS-CoV-2 Beta)
Test: ELISA

Binder	EC50
B1	> 10 µg/mL
B2	> 10 µg/mL
B3	> 10 µg/mL
B4	> 10 µg/mL
B5	> 10 µg/mL
B6	> 10 µg/mL

Biological target: SARS-CoV-2 Delta RBD (SARS-CoV-2 Delta)
Test: ELISA

Binder	EC50
B1	> 10 µg/mL
B2	> 10 µg/mL
B3	> 10 µg/mL
B4	> 10 µg/mL
B5	> 10 µg/mL
